Common to all, as to assay: SPR, Ab-IgE complex over captured hFcγRIIb, pH 7.4, 25C
Experiment [1] addresses T1, soluble human FcγRIIb (human, UniProt P31994 43-217, limits assumed).
T1 construct: soluble His-tagged form; also called hFcγRIIb
T1 sequence (looked up): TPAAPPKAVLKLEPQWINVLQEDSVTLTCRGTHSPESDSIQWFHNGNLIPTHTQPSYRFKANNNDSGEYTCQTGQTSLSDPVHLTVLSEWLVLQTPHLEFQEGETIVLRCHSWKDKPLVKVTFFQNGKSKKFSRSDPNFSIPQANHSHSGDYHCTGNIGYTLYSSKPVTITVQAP
The procedure: (§1) Regarding the produced Fc region variant-containing antibodies, binding assays between soluble human FcγRIIb and antigen-antibody complexes were performed using BIACORE T200 (GE Healthcare). Soluble human FcγRIIb (NCBI accession NM_004001.3) was produced in the form of a His-tagged molecule by a method known in the art. An appropriate amount of an anti-His antibody was fixed onto Sensor chip CM5 (GE Healthcare) by the amine coupling method using a His capture kit (GE Healthcare) to capture human FcγRIIb. Next, an antibody-antigen complex and a running buffer (as a reference solution) were injected, and interaction was allowed to take place with the human FcγRIIb captured onto the sensor chip. 20 mM N-(2-Acetamido)-2-aminoethanesulfonic acid, 150 mM NaCl, 1.2 mM CaCl₂, and 0.05% (w/v) Tween 20 at pH 7.4 was used as the running buffer, and the respective buffer was also used to dilute the soluble human FcγRIIb. To regenerate the sensor chip, 10 mM glycine-HCl at pH 1.5 was used. All measurements were carried out at 25° C. Analyses were performed based on binding (RU) calculated from sensorgrams obtained by the measurements, and relative values when the binding amount of Ab1H/Ab1L (original Ab1) was defined as 1.00 are shown. To calculate the parameters, the BIACORE T100 Evaluation Software (GE Healthcare) was used.

In experiment [2] the target is T1, soluble human FcγRIIb. The procedure:
as §1
The source holds these as a separate data set.

Experiment [3] concerns the target T1, soluble human FcγRIIb. The procedure: as §1
This is another data set of the same source.

Where a chain is given by its changes, count along the chain named. Names and notes keep the numbering of the source. Where two headings read alike, the source gives them in different places.

B1: Ab1H005m/Ab1L (antibody, human IgG1, kappa, name in Kabat numbering)
heavy: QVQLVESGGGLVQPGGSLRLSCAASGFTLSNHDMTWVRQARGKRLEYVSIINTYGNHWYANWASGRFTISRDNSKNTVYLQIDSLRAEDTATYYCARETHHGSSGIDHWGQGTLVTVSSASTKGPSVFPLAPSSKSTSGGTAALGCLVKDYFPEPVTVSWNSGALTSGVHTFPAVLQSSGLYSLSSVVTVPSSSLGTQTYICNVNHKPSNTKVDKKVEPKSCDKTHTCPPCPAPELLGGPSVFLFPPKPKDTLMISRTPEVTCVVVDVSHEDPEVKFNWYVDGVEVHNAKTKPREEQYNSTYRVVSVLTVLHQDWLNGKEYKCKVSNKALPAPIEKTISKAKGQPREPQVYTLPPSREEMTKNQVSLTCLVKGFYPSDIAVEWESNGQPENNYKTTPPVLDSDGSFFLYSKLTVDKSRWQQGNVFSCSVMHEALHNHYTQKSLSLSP
light: DIQMTQSPSSVSASVGDRVTITCQASESIYSGLAWYQQKPGQPPKLLIYDHSTLASGVPSRFSGSGSGTEYALTISSLQPEDFATYYCQHADYAHHSDNVFGGGTKVEIKRTVAAPSVFIFPPSDEQLKSGTASVVCLLNNFYPREAKVQWKVDNALQSGNSQESVTEQDSKDSTYSLSSTLTLSKADYEKHKVYACEVTHQGLSSPVTKSFNRGEC
notes: copies: 2 + 2
Turning to B1, in experiment [1], the “BIACORE fold (relative binding, original Ab1=1.00)” value turned out to be 0.92 fold.

B2: Ab1H012/Ab1L (antibody, human IgG1, kappa, name in Kabat numbering)
heavy: not shown
light: B1 light
notes: copies: 2 + 2
On to B2, for which the “BIACORE fold (relative binding, original Ab1=1.00)” value in experiment [1] worked out at 0.96 fold.

B3: Ab1H-P1469m/Ab1L (antibody, human IgG1, kappa, name in EU numbering)
heavy: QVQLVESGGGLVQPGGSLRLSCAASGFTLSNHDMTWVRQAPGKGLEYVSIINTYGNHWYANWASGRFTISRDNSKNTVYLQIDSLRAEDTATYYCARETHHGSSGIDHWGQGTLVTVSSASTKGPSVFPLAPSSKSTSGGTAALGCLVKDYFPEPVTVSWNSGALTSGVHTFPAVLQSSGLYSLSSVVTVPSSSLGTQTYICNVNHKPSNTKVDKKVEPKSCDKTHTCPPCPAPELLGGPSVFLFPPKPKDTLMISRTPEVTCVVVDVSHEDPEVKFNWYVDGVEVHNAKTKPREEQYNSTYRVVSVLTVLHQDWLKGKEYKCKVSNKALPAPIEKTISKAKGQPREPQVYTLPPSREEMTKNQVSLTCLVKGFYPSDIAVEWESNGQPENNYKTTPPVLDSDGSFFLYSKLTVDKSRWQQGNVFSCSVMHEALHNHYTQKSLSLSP
light: B1 light
notes: copies: 2 + 2
B3: the “BIACORE fold (relative binding, original Ab1=1.00)” value in experiment [2] is 1.13 fold.

B4: Ab1H034/Ab1L (antibody, human IgG1, kappa, name in Kabat numbering)
heavy: not shown
light: B1 light
notes: copies: 2 + 2
As for B4, the “BIACORE fold (relative binding, original Ab1=1.00)” value in experiment [1] is 1.21 fold.

B5: Ab1H039/Ab1L (antibody, human IgG1, kappa, name in Kabat numbering)
heavy: not shown
light: B1 light
notes: copies: 2 + 2
As for B5, the “BIACORE fold (relative binding, original Ab1=1.00)” value in experiment [1] came out at 1.57 fold.

B6: Ab1H045/Ab1L (antibody, human IgG1, kappa, name in Kabat numbering)
heavy: not shown
light: B1 light
notes: copies: 2 + 2
Turning to B6, in experiment [1], the “BIACORE fold (relative binding, original Ab1=1.00)” value was 0.76 fold.

B7: Ab1H/Ab1L061 (antibody, human IgG1, kappa)
heavy: not shown
light: B1 light with Q42K, S76R
notes: copies: 2 + 2
Regarding B7, the “BIACORE fold (relative binding, original Ab1=1.00)” value in experiment [3] turned out to be 1.02 fold.

B8: Ab1H/Ab1L038 (antibody, human IgG1, kappa)
heavy: not shown
light: B1 light with Q24R, E27R, S52R, S56R, T74K, S77R
notes: copies: 2 + 2
B8: the “BIACORE fold (relative binding, original Ab1=1.00)” value in experiment [3] was 1.47 fold.

B9: Ab1H/Ab1L039 (antibody, human IgG1, kappa)
heavy: not shown
light: B1 light with Q24R, E27R, T74K, S76R, S77R, Q79K
notes: copies: 2 + 2
B9: in experiment [3], the “BIACORE fold (relative binding, original Ab1=1.00)” value turned out to be 0.99 fold.

B10: Ab1H027/Ab1L (antibody, human IgG1, kappa, name in Kabat numbering)
heavy: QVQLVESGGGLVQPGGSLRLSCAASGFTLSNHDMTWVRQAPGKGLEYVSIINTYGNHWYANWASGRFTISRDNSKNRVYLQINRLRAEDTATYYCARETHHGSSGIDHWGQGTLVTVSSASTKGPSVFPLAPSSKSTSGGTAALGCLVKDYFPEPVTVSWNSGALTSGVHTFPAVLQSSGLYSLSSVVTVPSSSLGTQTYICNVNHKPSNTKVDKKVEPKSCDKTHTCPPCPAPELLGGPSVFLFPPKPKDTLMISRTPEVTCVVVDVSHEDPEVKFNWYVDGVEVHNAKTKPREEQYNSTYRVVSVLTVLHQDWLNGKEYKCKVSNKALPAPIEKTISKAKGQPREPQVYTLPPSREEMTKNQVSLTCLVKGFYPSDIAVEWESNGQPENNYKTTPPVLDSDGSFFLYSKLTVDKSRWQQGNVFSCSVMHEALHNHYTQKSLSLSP
light: B1 light
notes: copies: 2 + 2
For the molecule B10, the “BIACORE fold (relative binding, original Ab1=1.00)” value in experiment [1] stood at 1.21 fold.

B11: Ab1H-P1394m/Ab1L (antibody, human IgG1, kappa)
heavy: not shown
light: B1 light
notes: heavy chain = Ab1H with Q311K (EU); copies: 2 + 2
Take B11: the “BIACORE fold (relative binding, original Ab1=1.00)” value in experiment [2] came to 1.18 fold.

B12: Ab1H041m/Ab1L (antibody, human IgG1, kappa, name in Kabat numbering)
heavy: not shown
light: B1 light
notes: copies: 2 + 2
For B12, the “BIACORE fold (relative binding, original Ab1=1.00)” value in experiment [1] turned out to be 1.52 fold.

B13: Ab1H-P1471m/Ab1L (antibody, human IgG1, kappa, name in EU numbering)
heavy: not shown
light: B1 light
notes: copies: 2 + 2
Take B13: the “BIACORE fold (relative binding, original Ab1=1.00)” value in experiment [2] is 1.19 fold.

B14: Ab1H-P1480m/Ab1L (antibody, human IgG1, kappa, name in EU numbering)
heavy: not shown
light: B1 light
Consider B14, for which the “BIACORE fold (relative binding, original Ab1=1.00)” value in experiment [2] amounted to 1.03 fold.

B15: Ab1H031m/Ab1L (antibody, human IgG1, kappa, name in Kabat numbering)
heavy: not shown
light: B1 light
notes: copies: 2 + 2
As to B15, the “BIACORE fold (relative binding, original Ab1=1.00)” value in experiment [1] turned out to be 0.06 fold.

B16: Ab1H-P1398m/Ab1L (antibody, human IgG1, kappa, name in EU numbering)
heavy: not shown
light: B1 light
notes: copies: 2 + 2
Turning to B16, the “BIACORE fold (relative binding, original Ab1=1.00)” value in experiment [2] amounted to 1.23 fold.

B17: Ab1H014/Ab1L (antibody, human IgG1, kappa, name in Kabat numbering)
heavy: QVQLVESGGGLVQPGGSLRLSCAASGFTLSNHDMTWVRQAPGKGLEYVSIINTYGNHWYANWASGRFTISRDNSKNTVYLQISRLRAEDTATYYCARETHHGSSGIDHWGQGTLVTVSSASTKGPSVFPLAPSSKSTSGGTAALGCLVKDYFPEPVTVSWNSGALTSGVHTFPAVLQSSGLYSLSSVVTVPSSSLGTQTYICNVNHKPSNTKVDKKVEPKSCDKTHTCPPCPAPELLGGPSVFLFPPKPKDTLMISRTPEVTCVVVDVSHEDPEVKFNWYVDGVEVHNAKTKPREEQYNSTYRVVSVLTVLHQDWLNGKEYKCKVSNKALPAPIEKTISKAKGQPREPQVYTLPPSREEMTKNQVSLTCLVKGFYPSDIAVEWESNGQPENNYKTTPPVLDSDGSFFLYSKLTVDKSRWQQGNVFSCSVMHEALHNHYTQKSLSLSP
light: B1 light
notes: copies: 2 + 2
Consider B17, for which the “BIACORE fold (relative binding, original Ab1=1.00)” value in experiment [1] is 0.91 fold.

B18: Ab1H-P1483m/Ab1L (antibody, human IgG1, kappa, name in EU numbering)
heavy: not shown
light: B1 light
For B18, the “BIACORE fold (relative binding, original Ab1=1.00)” value in experiment [2] came to 1.02 fold.

B19: Ab1H010/Ab1L (antibody, human IgG1, kappa, name in Kabat numbering)
heavy: not shown
light: B1 light
notes: copies: 2 + 2
As to B19, the “BIACORE fold (relative binding, original Ab1=1.00)” value in experiment [1] came out at 1.05 fold.

B20: Ab1H-P1513m/Ab1L (antibody, human IgG1, kappa, name in EU numbering)
heavy: not shown
light: B1 light
notes: copies: 2 + 2
For the molecule B20, in experiment [2], the “BIACORE fold (relative binding, original Ab1=1.00)” value was determined as 1.21 fold.

B21: Ab1H018/Ab1L (antibody, human IgG1, kappa, name in Kabat numbering)
heavy: not shown
light: B1 light
notes: copies: 2 + 2
For the molecule B21, the “BIACORE fold (relative binding, original Ab1=1.00)” value in experiment [1] was -0.01 fold.

B22: Ab1H-P1512m/Ab1L (antibody, human IgG1, kappa, name in EU numbering)
heavy: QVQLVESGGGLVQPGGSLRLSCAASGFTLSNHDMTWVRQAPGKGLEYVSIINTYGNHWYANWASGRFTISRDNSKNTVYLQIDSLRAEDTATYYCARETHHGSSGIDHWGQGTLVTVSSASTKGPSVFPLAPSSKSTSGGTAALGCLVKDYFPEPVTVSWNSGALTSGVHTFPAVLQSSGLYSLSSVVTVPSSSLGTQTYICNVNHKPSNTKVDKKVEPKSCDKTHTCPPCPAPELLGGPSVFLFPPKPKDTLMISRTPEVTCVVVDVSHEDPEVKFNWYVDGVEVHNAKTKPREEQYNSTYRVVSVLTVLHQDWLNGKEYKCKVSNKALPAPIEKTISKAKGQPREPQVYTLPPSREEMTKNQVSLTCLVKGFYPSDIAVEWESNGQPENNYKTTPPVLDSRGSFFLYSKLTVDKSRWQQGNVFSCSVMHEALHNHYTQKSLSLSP
light: B1 light
notes: copies: 2 + 2
On to B22, for which the “BIACORE fold (relative binding, original Ab1=1.00)” value in experiment [2] worked out at 1.24 fold.

B23: Ab1H016/Ab1L (antibody, human IgG1, kappa, name in Kabat numbering)
heavy: not shown
light: B1 light
notes: copies: 2 + 2
For B23, the “BIACORE fold (relative binding, original Ab1=1.00)” value in experiment [1] was 1.04 fold.

B24: Ab1H-P1514m/Ab1L (antibody, human IgG1, kappa, name in EU numbering)
heavy: not shown
light: B1 light
notes: copies: 2 + 2
For B24, in experiment [2], the “BIACORE fold (relative binding, original Ab1=1.00)” value came out at 1.2 fold.

B25: Ab1H/Ab1L037 (antibody, human IgG1, kappa)
heavy: not shown
light: B1 light with Q24R, E27R, G41R, Q42K, T74K, S77R
notes: copies: 2 + 2
With B25, the “BIACORE fold (relative binding, original Ab1=1.00)” value in experiment [3] was determined as 1.38 fold.

B26: Ab1H/Ab1L062 (antibody, human IgG1, kappa)
heavy: not shown
light: B1 light with S65R, Q79K
notes: copies: 2 + 2
For B26, in experiment [3], the “BIACORE fold (relative binding, original Ab1=1.00)” value was 0.98 fold.

B27: Ab1H028/Ab1L (antibody, human IgG1, kappa, name in Kabat numbering)
heavy: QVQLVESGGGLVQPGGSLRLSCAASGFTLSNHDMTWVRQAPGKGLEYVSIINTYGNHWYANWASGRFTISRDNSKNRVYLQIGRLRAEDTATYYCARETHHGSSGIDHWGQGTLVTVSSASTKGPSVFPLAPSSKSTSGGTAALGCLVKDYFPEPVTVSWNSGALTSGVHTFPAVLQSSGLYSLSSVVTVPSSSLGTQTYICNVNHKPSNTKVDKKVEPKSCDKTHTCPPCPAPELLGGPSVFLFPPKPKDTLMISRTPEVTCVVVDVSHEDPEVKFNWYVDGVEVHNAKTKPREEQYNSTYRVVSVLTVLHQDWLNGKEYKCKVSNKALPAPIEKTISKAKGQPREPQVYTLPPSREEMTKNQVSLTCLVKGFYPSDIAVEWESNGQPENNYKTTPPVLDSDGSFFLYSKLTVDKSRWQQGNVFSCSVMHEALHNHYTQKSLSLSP
light: B1 light
notes: copies: 2 + 2
As to B27, in experiment [1], the “BIACORE fold (relative binding, original Ab1=1.00)” value stood at 1.37 fold.

B28: Ab1H035/Ab1L (antibody, human IgG1, kappa, name in Kabat numbering)
heavy: not shown
light: B1 light
notes: copies: 2 + 2
As for B28, the “BIACORE fold (relative binding, original Ab1=1.00)” value in experiment [1] turned out to be 1.28 fold.

B29: Ab1H013/Ab1L (antibody, human IgG1, kappa, name in Kabat numbering)
heavy: not shown
light: B1 light
notes: copies: 2 + 2
For B29, the “BIACORE fold (relative binding, original Ab1=1.00)” value in experiment [1] was 1.02 fold.

B30: Ab1H-P1468m/Ab1L (antibody, human IgG1, kappa, name in EU numbering)
heavy: not shown
light: B1 light
notes: copies: 2 + 2
Regarding B30, in experiment [2], the “BIACORE fold (relative binding, original Ab1=1.00)” value turned out to be 1.13 fold.

B31: Ab1H/Ab1L041 (antibody, human IgG1, kappa)
heavy: not shown
light: B1 light with Q24R, E27R, S52R, S56R, S76R, Q79K
notes: copies: 2 + 2
Take B31: the “BIACORE fold (relative binding, original Ab1=1.00)” value in experiment [3] turned out to be 1.35 fold.

B32: Ab1H-P1481m/Ab1L (antibody, human IgG1, kappa, name in EU numbering)
heavy: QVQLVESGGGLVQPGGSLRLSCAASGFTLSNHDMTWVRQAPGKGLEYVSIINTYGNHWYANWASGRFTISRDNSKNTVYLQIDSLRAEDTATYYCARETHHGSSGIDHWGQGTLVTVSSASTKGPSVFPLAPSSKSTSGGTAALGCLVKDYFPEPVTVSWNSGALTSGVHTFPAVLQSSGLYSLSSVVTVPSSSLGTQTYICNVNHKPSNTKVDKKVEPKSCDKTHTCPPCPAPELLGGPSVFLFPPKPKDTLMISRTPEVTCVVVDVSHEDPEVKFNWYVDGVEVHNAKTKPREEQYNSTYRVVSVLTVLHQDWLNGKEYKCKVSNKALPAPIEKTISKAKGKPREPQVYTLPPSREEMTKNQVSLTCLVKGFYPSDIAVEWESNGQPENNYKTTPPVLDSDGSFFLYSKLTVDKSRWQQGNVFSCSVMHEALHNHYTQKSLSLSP
light: B1 light
Turning to B32, the “BIACORE fold (relative binding, original Ab1=1.00)” value in experiment [2] stood at 1.08 fold.

B33: Ab1H029/Ab1L (antibody, human IgG1, kappa, name in Kabat numbering)
heavy: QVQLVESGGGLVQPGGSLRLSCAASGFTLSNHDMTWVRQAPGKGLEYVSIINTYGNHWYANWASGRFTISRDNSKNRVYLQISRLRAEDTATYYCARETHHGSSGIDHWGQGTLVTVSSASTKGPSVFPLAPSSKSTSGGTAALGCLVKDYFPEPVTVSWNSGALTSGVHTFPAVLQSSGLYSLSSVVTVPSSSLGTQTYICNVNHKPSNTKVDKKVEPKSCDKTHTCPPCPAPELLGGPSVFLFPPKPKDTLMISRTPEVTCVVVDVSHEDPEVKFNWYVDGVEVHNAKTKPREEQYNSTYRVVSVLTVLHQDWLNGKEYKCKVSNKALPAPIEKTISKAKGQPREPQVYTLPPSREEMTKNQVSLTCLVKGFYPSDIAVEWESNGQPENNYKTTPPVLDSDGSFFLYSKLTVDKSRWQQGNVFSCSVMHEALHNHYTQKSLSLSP
light: B1 light
notes: copies: 2 + 2
For B33, the “BIACORE fold (relative binding, original Ab1=1.00)” value in experiment [1] was 1.33 fold.

B34: Ab1H/Ab1L040 (antibody, human IgG1, kappa)
heavy: not shown
light: B1 light with Q24R, E27R, G41R, Q42K, S76R, Q79K
notes: copies: 2 + 2
Turning to B34, the “BIACORE fold (relative binding, original Ab1=1.00)” value in experiment [3] turned out to be 1.23 fold.

B35: Ab1H030/Ab1L (antibody, human IgG1, kappa, name in Kabat numbering)
heavy: not shown
light: B1 light
notes: copies: 2 + 2
For the molecule B35, the “BIACORE fold (relative binding, original Ab1=1.00)” value in experiment [1] worked out at 1.27 fold.

B36: Ab1H-P1482m/Ab1L (antibody, human IgG1, kappa, name in EU numbering)
heavy: not shown
light: B1 light
B36: the “BIACORE fold (relative binding, original Ab1=1.00)” value in experiment [2] was 1.46 fold.

B37: Ab1H-P1470m/Ab1L (antibody, human IgG1, kappa, name in EU numbering)
heavy: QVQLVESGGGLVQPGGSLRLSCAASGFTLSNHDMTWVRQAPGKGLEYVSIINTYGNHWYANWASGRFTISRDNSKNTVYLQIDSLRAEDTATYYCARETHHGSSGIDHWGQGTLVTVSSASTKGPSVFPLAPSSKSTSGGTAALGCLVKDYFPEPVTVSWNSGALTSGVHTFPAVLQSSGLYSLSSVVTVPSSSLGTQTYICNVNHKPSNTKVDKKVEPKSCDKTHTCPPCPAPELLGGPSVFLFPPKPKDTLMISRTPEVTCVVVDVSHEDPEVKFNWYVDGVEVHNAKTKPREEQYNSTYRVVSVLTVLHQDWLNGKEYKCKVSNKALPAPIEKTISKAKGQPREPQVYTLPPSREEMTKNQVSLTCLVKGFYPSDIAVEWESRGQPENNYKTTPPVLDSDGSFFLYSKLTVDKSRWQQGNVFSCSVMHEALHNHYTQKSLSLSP
light: B1 light
notes: copies: 2 + 2
B37: the “BIACORE fold (relative binding, original Ab1=1.00)” value in experiment [2] was 1.19 fold.

B38: Ab1H-P1466m/Ab1L (antibody, human IgG1, kappa, name in EU numbering)
heavy: not shown
light: B1 light
notes: copies: 2 + 2
Turning to B38, the “BIACORE fold (relative binding, original Ab1=1.00)” value in experiment [2] was 1.22 fold.

B39: Ab1H-P1653m/Ab1L (antibody, human IgG1, kappa, name in EU numbering)
heavy: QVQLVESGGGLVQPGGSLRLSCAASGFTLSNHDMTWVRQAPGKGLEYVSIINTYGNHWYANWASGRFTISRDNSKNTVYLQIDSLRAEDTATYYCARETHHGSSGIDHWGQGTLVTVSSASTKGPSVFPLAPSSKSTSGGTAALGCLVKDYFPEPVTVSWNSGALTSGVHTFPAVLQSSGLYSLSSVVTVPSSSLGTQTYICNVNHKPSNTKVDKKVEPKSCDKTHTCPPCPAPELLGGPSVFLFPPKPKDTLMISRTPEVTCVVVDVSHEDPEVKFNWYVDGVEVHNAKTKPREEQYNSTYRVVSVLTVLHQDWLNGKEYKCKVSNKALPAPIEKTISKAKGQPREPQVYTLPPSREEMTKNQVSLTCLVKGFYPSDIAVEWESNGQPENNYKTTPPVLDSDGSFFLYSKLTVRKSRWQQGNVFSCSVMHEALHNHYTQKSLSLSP
light: B1 light
notes: copies: 2 + 2
Consider B39, for which the “BIACORE fold (relative binding, original Ab1=1.00)” value in experiment [2] was 0.79 fold.

B40: Ab1H-P1515m/Ab1L (antibody, human IgG1, kappa, name in EU numbering)
heavy: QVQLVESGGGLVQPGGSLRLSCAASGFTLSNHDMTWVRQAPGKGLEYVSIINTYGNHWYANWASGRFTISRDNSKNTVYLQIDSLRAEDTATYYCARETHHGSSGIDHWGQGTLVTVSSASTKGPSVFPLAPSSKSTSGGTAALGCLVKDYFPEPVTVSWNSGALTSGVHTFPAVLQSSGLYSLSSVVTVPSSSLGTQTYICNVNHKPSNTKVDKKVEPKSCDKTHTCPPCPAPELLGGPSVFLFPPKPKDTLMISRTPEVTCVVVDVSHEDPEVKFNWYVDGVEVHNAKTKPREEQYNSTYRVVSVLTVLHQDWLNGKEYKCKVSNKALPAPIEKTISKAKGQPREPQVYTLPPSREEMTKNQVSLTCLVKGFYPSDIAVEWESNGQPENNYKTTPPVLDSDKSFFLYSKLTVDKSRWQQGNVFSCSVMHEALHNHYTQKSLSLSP
light: B1 light
notes: copies: 2 + 2
B40: the “BIACORE fold (relative binding, original Ab1=1.00)” value in experiment [2] stood at 1.19 fold.

Source of the values: patent publication US20180258163A1 (Chugai, published 2018).
